± gives the uncertainty stated by the source.
B1: POU domain, class 3, transcription factor 3, residues 408 to 463; numbered along this chain, P20264 (parent)
chain: KKRTSIEVSVKGALESHFLKCPKPSAQEITNLADSLQLEKEVVRVWFCNRRQKEKR
B2: Transcription factor SOX-4, residues 60 to 127; numbered along this chain, Q06945 (parent)
chain: KRPMNAFMVWSQIERRKIMEQSPDMHNAEISKRLGKRWKLLKDSDKIPFIREAERLRLKHMADYPDYK

Variants of: B1
Test: abundance fitness (aPCA) (normalised: wild type 0, dead -1); higher = more abundant; growth selection in yeast, the domain comes from the species named
Conditions: Homo sapiens

Variant | abundance fitness
KIRTSIEVSVKGALESHFLKCPKPSAQEITNLADSLQLEKEVVRVWFCNRRQKEKR [K2I] | -0.374 ± 0.17
KQRTSIEVSVKGALESHFLKCPKPSAQEITNLADSLQLEKEVVRVWFCNRRQKEKR [K2Q] | -0.255 ± 0.23
KHRTSIEVSVKGALESHFLKCPKPSAQEITNLADSLQLEKEVVRVWFCNRRQKEKR [K2H] | -0.38 ± 0.36
KNRTSIEVSVKGALESHFLKCPKPSAQEITNLADSLQLEKEVVRVWFCNRRQKEKR [K2N] | -0.094 ± 0.14
KRRTSIEVSVKGALESHFLKCPKPSAQEITNLADSLQLEKEVVRVWFCNRRQKEKR [K2R] | -0.086 ± 0.081
KTRTSIEVSVKGALESHFLKCPKPSAQEITNLADSLQLEKEVVRVWFCNRRQKEKR [K2T] | -0.008 ± 0.11
KYRTSIEVSVKGALESHFLKCPKPSAQEITNLADSLQLEKEVVRVWFCNRRQKEKR [K2Y] | -0.391 ± 0.14
KGRTSIEVSVKGALESHFLKCPKPSAQEITNLADSLQLEKEVVRVWFCNRRQKEKR [K2G] | -0.025 ± 0.089
KFRTSIEVSVKGALESHFLKCPKPSAQEITNLADSLQLEKEVVRVWFCNRRQKEKR [K2F] | 0.056 ± 0.16
KARTSIEVSVKGALESHFLKCPKPSAQEITNLADSLQLEKEVVRVWFCNRRQKEKR [K2A] | -0.13 ± 0.12
KVRTSIEVSVKGALESHFLKCPKPSAQEITNLADSLQLEKEVVRVWFCNRRQKEKR [K2V] | -0.048 ± 0.1
KMRTSIEVSVKGALESHFLKCPKPSAQEITNLADSLQLEKEVVRVWFCNRRQKEKR [K2M] | -0.066 ± 0.12
KWRTSIEVSVKGALESHFLKCPKPSAQEITNLADSLQLEKEVVRVWFCNRRQKEKR [K2W] | -0.321 ± 0.12
KDRTSIEVSVKGALESHFLKCPKPSAQEITNLADSLQLEKEVVRVWFCNRRQKEKR [K2D] | -0.098 ± 0.14
KCRTSIEVSVKGALESHFLKCPKPSAQEITNLADSLQLEKEVVRVWFCNRRQKEKR [K2C] | -0.332 ± 0.2
KPRTSIEVSVKGALESHFLKCPKPSAQEITNLADSLQLEKEVVRVWFCNRRQKEKR [K2P] | -0.305 ± 0.15
KERTSIEVSVKGALESHFLKCPKPSAQEITNLADSLQLEKEVVRVWFCNRRQKEKR [K2E] | -0.054 ± 0.13
KSRTSIEVSVKGALESHFLKCPKPSAQEITNLADSLQLEKEVVRVWFCNRRQKEKR [K2S] | -0.077 ± 0.098
KKRASIEVSVKGALESHFLKCPKPSAQEITNLADSLQLEKEVVRVWFCNRRQKEKR [T4A] | -0.17 ± 0.079
VKRTSIEVSVKGALESHFLKCPKPSAQEITNLADSLQLEKEVVRVWFCNRRQKEKR [K1V] | -0.092 ± 0.33
LKRTSIEVSVKGALESHFLKCPKPSAQEITNLADSLQLEKEVVRVWFCNRRQKEKR [K1L] | -0.756 ± 0.24
IKRTSIEVSVKGALESHFLKCPKPSAQEITNLADSLQLEKEVVRVWFCNRRQKEKR [K1I] | -0.181 ± 0.16
AKRTSIEVSVKGALESHFLKCPKPSAQEITNLADSLQLEKEVVRVWFCNRRQKEKR [K1A] | -0.075 ± 0.27
QKRTSIEVSVKGALESHFLKCPKPSAQEITNLADSLQLEKEVVRVWFCNRRQKEKR [K1Q] | -0.271 ± 0.27
DKRTSIEVSVKGALESHFLKCPKPSAQEITNLADSLQLEKEVVRVWFCNRRQKEKR [K1D] | -0.124 ± 0.13

Variant | abundance fitness
YKRTSIEVSVKGALESHFLKCPKPSAQEITNLADSLQLEKEVVRVWFCNRRQKEKR [K1Y] | -0.258 ± 0.23
RKRTSIEVSVKGALESHFLKCPKPSAQEITNLADSLQLEKEVVRVWFCNRRQKEKR [K1R] | -0.263 ± 0.12
MKRTSIEVSVKGALESHFLKCPKPSAQEITNLADSLQLEKEVVRVWFCNRRQKEKR [K1M] | -0.333 ± 0.23
GKRTSIEVSVKGALESHFLKCPKPSAQEITNLADSLQLEKEVVRVWFCNRRQKEKR [K1G] | -0.067 ± 0.1
WKRTSIEVSVKGALESHFLKCPKPSAQEITNLADSLQLEKEVVRVWFCNRRQKEKR [K1W] | -0.15 ± 0.34
CKRTSIEVSVKGALESHFLKCPKPSAQEITNLADSLQLEKEVVRVWFCNRRQKEKR [K1C] | -0.104 ± 0.17
SKRTSIEVSVKGALESHFLKCPKPSAQEITNLADSLQLEKEVVRVWFCNRRQKEKR [K1S] | -0.154 ± 0.14
NKRTSIEVSVKGALESHFLKCPKPSAQEITNLADSLQLEKEVVRVWFCNRRQKEKR [K1N] | -0.072 ± 0.2
KKKTSIEVSVKGALESHFLKCPKPSAQEITNLADSLQLEKEVVRVWFCNRRQKEKR [R3K] | 0.067 ± 0.13
KKSTSIEVSVKGALESHFLKCPKPSAQEITNLADSLQLEKEVVRVWFCNRRQKEKR [R3S] | 0.026 ± 0.081
KKITSIEVSVKGALESHFLKCPKPSAQEITNLADSLQLEKEVVRVWFCNRRQKEKR [R3I] | -0.023 ± 0.17
KKGTSIEVSVKGALESHFLKCPKPSAQEITNLADSLQLEKEVVRVWFCNRRQKEKR [R3G] | 0.04 ± 0.064
KKLTSIEVSVKGALESHFLKCPKPSAQEITNLADSLQLEKEVVRVWFCNRRQKEKR [R3L] | 0.055 ± 0.087
KKWTSIEVSVKGALESHFLKCPKPSAQEITNLADSLQLEKEVVRVWFCNRRQKEKR [R3W] | -0.155 ± 0.088
KKYTSIEVSVKGALESHFLKCPKPSAQEITNLADSLQLEKEVVRVWFCNRRQKEKR [R3Y] | -0.267 ± 0.19
KKNTSIEVSVKGALESHFLKCPKPSAQEITNLADSLQLEKEVVRVWFCNRRQKEKR [R3N] | -0.048 ± 0.2
KKHTSIEVSVKGALESHFLKCPKPSAQEITNLADSLQLEKEVVRVWFCNRRQKEKR [R3H] | -0.273 ± 0.15
KKVTSIEVSVKGALESHFLKCPKPSAQEITNLADSLQLEKEVVRVWFCNRRQKEKR [R3V] | 0.031 ± 0.079
KKCTSIEVSVKGALESHFLKCPKPSAQEITNLADSLQLEKEVVRVWFCNRRQKEKR [R3C] | -0.415 ± 0.15
KKFTSIEVSVKGALESHFLKCPKPSAQEITNLADSLQLEKEVVRVWFCNRRQKEKR [R3F] | -0.119 ± 0.15
KKTTSIEVSVKGALESHFLKCPKPSAQEITNLADSLQLEKEVVRVWFCNRRQKEKR [R3T] | -0.077 ± 0.094
KKMTSIEVSVKGALESHFLKCPKPSAQEITNLADSLQLEKEVVRVWFCNRRQKEKR [R3M] | 0.045 ± 0.11
KKATSIEVSVKGALESHFLKCPKPSAQEITNLADSLQLEKEVVRVWFCNRRQKEKR [R3A] | -0.15 ± 0.075
KKQTSIEVSVKGALESHFLKCPKPSAQEITNLADSLQLEKEVVRVWFCNRRQKEKR [R3Q] | -0.217 ± 0.13
KKPTSIEVSVKGALESHFLKCPKPSAQEITNLADSLQLEKEVVRVWFCNRRQKEKR [R3P] | -0.2 ± 0.13

Variants of: B2
Test: as above
Conditions: Homo sapiens

Variant | abundance fitness
I18V | -0.482 ± 0.086
I18M | -0.169 ± 0.066
D24M | -0.214 ± 0.057
D24T | -0.206 ± 0.068
D24F | -0.134 ± 0.043
D24W | -0.188 ± 0.063
P23D | -0.564 ± 0.059
P23Q | -0.482 ± 0.09
P23R | -0.669 ± 0.048
N27H | 0.059 ± 0.049
L34P | -0.955 ± 0.2
L34M | -0.798 ± 0.18
L34Q | -0.577 ± 0.22
P3V | -0.136 ± 0.049
P3H | -0.055 ± 0.064
P3E | 0.072 ± 0.074
P3F | -0.186 ± 0.056
E52R | -0.322 ± 0.1
M19Y | -0.459 ± 0.064
M19I | 0.014 ± 0.045
M19G | -0.452 ± 0.053
M19E | -0.019 ± 0.067
A62V | -0.123 ± 0.037
A62F | -0.22 ± 0.059
K59V | -0.086 ± 0.038
K59L | 0.02 ± 0.044
K59E | -0.017 ± 0.046

Variant | abundance fitness
A28L | -0.195 ± 0.068
A28Q | -0.145 ± 0.076
A28R | -0.132 ± 0.052
A28S | -0.029 ± 0.052
A28E | -0.078 ± 0.069
G35E | 0.262 ± 0.057
V9N | -0.609 ± 0.21
V9H | -0.733 ± 0.18
V9E | -0.856 ± 0.19
V9M | -0.266 ± 0.13
V9S | -0.803 ± 0.15
Q21D | -0.346 ± 0.1
Q21F | -0.426 ± 0.14
Q21L | -0.349 ± 0.062
Q21N | -0.382 ± 0.12
Q21E | -0.062 ± 0.12
I47G | -0.231 ± 0.039
D66K | -0.11 ± 0.082
D66C | -0.422 ± 0.1
D66V | -0.157 ± 0.049
D66I | -0.13 ± 0.19
I13V | -0.186 ± 0.049
I13M | -0.228 ± 0.069
S31H | -0.19 ± 0.07
S31K | -0.039 ± 0.06
S31I | -0.054 ± 0.061

Source: the Human Domainome abundance scans (Beltran et al. 2025)
